Laboratory results as given in patent US9212226B2, “Amino acid sequences directed against CXCR4 and other GPCRs and compounds comprising the same” (Ablynx N.V., priority 2008, dated 2015).
Marks after values point to notes of the source that are not given here.

Experiments:
CXCR4 [1] = biological target: T1, CXCR4 (Homo sapiens, UniProt P61073); test: [125I]-CXCL12 competition binding on membranes from HEK293T cells transiently expressing CXCR4; conditions: for Displacem. (%) of [125I]-CXCL12 at 0.5 μM: at highest test concentration of 0.5 μM (footnote a: no significant displacement); for displacement of specifically bound [125I]-CXCL12: purified ligands, highest Nanobody test concentration 0.5 μM; for Binding (binding efficiency, competition binding with [125I]-CXCL12): screening of Nanobody clone pools; for Binding (binding efficiency, competition binding with [125I]-CXCL12) / Displacem. (%) of [125I]-CXCL12 (maximal displacement), bivalent Nanobodies / pKi, [125I]-CXCL12, bivalent Nanobodies: membranes from HEK293T cells transiently expressing CXCR4; for Displacem. (%) of [125I]-CXCL12 (maximal displacement), bivalent Nanobodies / pKi, [125I]-CXCL12, bivalent Nanobodies: mean ± S.E.M.; for Rel. potency, relative to monovalent 238D2: [125I]-CXCL12 displacement, potency relative to those of monovalent 238D2
T1 sequence (P61073 whole entry): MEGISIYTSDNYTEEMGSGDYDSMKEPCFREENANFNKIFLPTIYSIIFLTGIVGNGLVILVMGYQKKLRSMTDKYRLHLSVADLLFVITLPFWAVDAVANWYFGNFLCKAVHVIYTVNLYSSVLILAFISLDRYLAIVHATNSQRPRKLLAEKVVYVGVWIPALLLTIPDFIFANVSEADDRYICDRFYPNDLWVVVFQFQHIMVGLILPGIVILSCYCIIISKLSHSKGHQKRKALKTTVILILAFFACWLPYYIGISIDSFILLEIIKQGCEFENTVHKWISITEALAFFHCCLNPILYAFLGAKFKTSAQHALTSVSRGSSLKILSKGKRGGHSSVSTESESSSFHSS
Method: (§1) HEK293T cells were maintained at 37° C. in a humidified 5% CO2, 95% air atmosphere in Dulbecco's modified Eagle's medium (DMEM) containing 2 mM L-glutamine, 50 IU/ml penicillin, 50 μg/ml streptomycin, and 10% (v/v) fetal calf serum. Jurkat cells were cultured in a humidified 5% CO2, 95% air atmosphere in a 1:1 mixture of Dulbecco's modified Eagle's medium (DMEM) and Ham's F12 medium containing 2 mM L-glutamine, 50 IU/ml penicillin, 50 μg/ml streptomycin, and 10% (v/v) fetal calf serum. […] [^125 I]-Labelling— Radiolabeling of Nanobodies with ^125I was performed using the Iodo-gen method (Pierce, Rockford, Ill.) according to the manufacturer's protocol. ^125I-labeled Nanobodies was separated from free iodine (>99%) using a Sephadex G-25 gel filtration column (Amersham Biosciences, Piscataway, N.J.). […] Competition Binding Assays— Membranes from HEK293T cells transiently expressing CXCR3 or CXCR4 were prepared 48 h after transfection as follows. Cells were washed and scraped from the cell culture dishes with ice-cold PBS containing 1 mm EDTA. The scraped cells were pelleted at 1500×g for 10 min at 4° C. The pellet was washed and then resuspended in ice-cold membrane buffer (15 mM Tris, pH 7.5, 1 mM EGTA, 0.3 mM EDTA, and 2 mM MgCl2). The cell suspension was homogenized by 10 strokes at 1200 rpm using a Teflon-glass homogenizer and rotor and further subjected to three freeze-thaw cycles using liquid nitrogen. Membranes were separated by centrifugation at 40,000 g for 25 min at 4° C. The membrane pellet was washed and resuspended in ice-cold Tris-sucrose buffer (20 mM Tris, pH 7.4, and 250 mM sucrose) and frozen in liquid nitrogen. The total protein was determined using a Bradford assay (Bio-Rad). […] Membranes were then harvested over polyethylenimine (0.5%)-treated Whatman GF/C filter plates and washed three times with ice cold binding buffer containing 500 mM NaCl. Plates were counted by liquid scintillation. Inositol Phosphate Accumulation Assay— 24 hours post transfection with pcDNA3.1-CXCR4 and pcDNA1-HA-mG {alpha} qi5 (see Verzijl et al, 2008 supra), 250.000 cells were seeded into 24-wells plates and labelled overnight using inositol-free minimal essential medium supplemented with 1 μCi myo-[2-^3H]-inositol. The next day, the cells were washed once to remove not incorporated myo-[2-^3H]-inositol. […] In agonist experiments, the cells were directly stimulated with test compounds and LiCl (10 mM) in assay buffer for 2 h at 37° C. The stimulation was stopped by aspirating the stimulation medium and adding ice-cold 10 mM formic acid. The accumulated inositol phosphates were isolated by anion exchange chromatography and counted by liquid scintillation. CRE Reporter Gene Assay— HEK239T cells were transfected with pCRE/β-galactosidase (Chen W, Shields T S, Stork P J S, Cone R D (1995) Anal Biochem 226:349-354) and plasmids (pcDEF3 or pcDNA3.1) encoding the indicated receptors. 40,000 transfected cells per well were seeded into 96 well plates and grown in DMEM supplemented with 10% fetal calf serum. The medium was replaced 32 h after transfection by serum-free DMEM supplemented with 0.5% bovine serum albumin and ligands as indicated. […] The β-galactosidase activity was determined by the measurement of absorption at 420 nm with a PowerwaveX340 plate reader (Bio-Tek Instruments Inc., Winooski, Vt.) after incubation with the assay buffer when the OD420 value for forskolin (3 μM) controls reached 0.4-0.6. Chemotaxis Assay— The chemotactic responsiveness of Jurkat 3D cells was assessed using ChemoTx™ plates (Receptor Technologies Ltd., Oxon, UK) in which a upper cell-containing compartment is separated from a lower chemoattractant-containing compartment by a polyvinylpyrollidone-free polycarbonate filter with 5-μm pores. Cells were harvested, washed and resuspended in RPMI containing 0.5% bovine serum albumin and then loaded to 150,000 cells per well in a volume of 25 μl into the upper compartment of the chemotaxis chamber.

CXCR4 [2] = biological target: T1, CXCR4; test: [125I]-238D4 competition binding on membranes from HEK293T cells transiently expressing CXCR4; conditions: for displacement of [125I]-238D4 from CXCR4: [125I]-238D4 3 nM; for Displacem. (%) of [125I]-238D4 at 0.5 μM: at highest test concentration of 0.5 μM (footnote a: no significant displacement; b: maximum not reached)
Method: as §1

CXCR4 [3] = biological target: T1, CXCR4; test: [125I]-238D2 competition binding on membranes from HEK293T cells transiently expressing CXCR4; conditions: for displacement of [125I]-238D2 from CXCR4: [125I]-238D2 3 nM; for Displacem. (%) of [125I]-238D2 at 0.5 μM: at highest test concentration of 0.5 μM (footnote a: no significant displacement; b: maximum not reached)
Method: as §1

Molecule	Displacem. (%) of [125I]-CXCL12 at 0.5 μM (CXCR4 [1])	displacement of specifically bound [125I]-CXCL12 (CXCR4 [1])	Binding (binding efficiency, competition binding with [125I]-CXCL12) (CXCR4 [1])	displacement of [125I]-238D4 from CXCR4 (CXCR4 [2])	Displacem. (%) of [125I]-238D4 at 0.5 μM (CXCR4 [2])	displacement of [125I]-238D2 from CXCR4 (CXCR4 [3])	Displacem. (%) of [125I]-238D2 at 0.5 μM (CXCR4 [3])	Displacem. (%) of [125I]-CXCL12 (maximal displacement), bivalent Nanobodies (CXCR4 [1])	affinity to CXCR4 (CXCR4 [1]; in words)	Rel. potency, relative to monovalent 238D2 (CXCR4 [1])	pKi, [125I]-CXCL12, bivalent Nanobodies (CXCR4 [1])	Displacem. (%) of [125I]-CXCL12 at 0.5 μM, bivalent Nanobodies (CXCR4 [1]; maximum not reached at the highest test concentration of 0.5 μM, displacement at 0.5 μM)
237G7: Nanobody (VHH) raised against human CXCR4, SEQ ID NO: 251 (protein, Nanobody, Nanobody constructs or fragments thereof) VHH: EVQLVESGGGLVQPGGSLRLSCAASSFIGNYHAIVWLRQAPGKELEGVSCITSRDSITYYASFVKGRFTISRDDAKNTVYLQMNNLKPEDTAVYYCAVBTSMTCPTLIVRFNYRGQGTQVTVSS	0^a %	unable to displace	+ (+ = 30-69%)	unable to inhibit	0^a %	unable to inhibit	0^a %	–	–	–	–	–
238D4-20GS-238D4: bivalent Nanobody, 238D4 linked to 238D4 by a 20 amino acid GGGGS linker (protein, Nanobody, Nanobody constructs or fragments thereof, bivalent Nanobody, 238D4 linked to 238D4 by a 20 amino acid GGGGS linker) EVQLMESGGGLVQAGGSLRLSCAASGRTFNNYAMGWFRRAPGKEREFVAAITRSGVRSGVSAIYGDSVKDRFTISRDNAKNTLYLQMNSLKPEDTAVYTCAASAIGSGALRRFEYDYSGQGTQVTVSSGGGGSGGGGSGGGGSGGGGSEVQLMESGGGLVQAGGSLRLSCAASGRTFNNYAMGWFRRAPGKEREFVAAITRSGVRSGVSAIYGDSVKDRFTISRDNAKNTLYLQMNSLKPEDTAVYTCAASAIGSGALRRFEYDYSGQGTQVTVSS	–	–	–	–	–	–	–	96 ± 5%	–	–	–	–
238B10: Nanobody (VHH) raised against human CXCR4, SEQ ID NO: 242 (protein, Nanobody, Nanobody constructs or fragments thereof) VHH: EVQLVESGGGFVQAGGSLRLSCETSGRPLLGYTIAWFRQVPGKEREFVAYHRWSDGANLYADSVKGRFTISGHNAKNTVSLQMNSLKPEDTAVYYCAAARMTTSNDKEYLYWGQGTQVTVSS	–	–	–	–	–	–	–	–	inactive	–	–	–
238D2-20GS-238C5 (protein, Nanobody, Nanobody constructs or fragments thereof) EVQLVESGGGLVQTGGSLRLSCAASGFTFSSYAMSWVRQAPGKGLEWVSGIKSSGDSTRYAGSVKGRFTISRDNAKNMLYLQMYSLKPEDTAVYYCAKSRVSRTGLYTYDNRGQGTQVTVSSGGGGSGGGGSGGGGSGGGGSEVQLMESGGGLVQAGGSLRLACAASGFTFEDYAIGWFRKAPGKEREGVSCISGSDGSTTYADSVKGRFTISTDNAKNTVYLEMNSLKPEDTAVYYCAQQYGVGGRVVCPGPYEYDVWGQGTQVTVSS	–	–	–	–	–	–	–	110 ± 2%	–	0.18^a	7.35 ± 0.07	–
237A6: Nanobody (VHH) raised against human CXCR4, SEQ ID NO: 248 (protein, Nanobody, Nanobody constructs or fragments thereof) VHH: EVQLVESGGGLVQAGGSLRLSCAASGSIFSLNAMGWYRQAPGKQRELVAGITSSTSTYYADSVKGRFTISRDNTKNTVYLQMNSLKPEDTAVYYCNVDCPDYYSDYECPLEDRGQGTQVTVSS	0^a %	unable to displace	+ (+ = 30-69%)	unable to inhibit	0^a %	unable to inhibit	0^a %	–	–	–	–	–
238D2-10GS-238D2: bivalent Nanobody, 238D2 linked to 238D2 by a 10 amino acid GGGGS linker (protein, Nanobody, Nanobody constructs or fragments thereof, bivalent Nanobody, 238D2 linked to 238D2 by a 10 amino acid GGGGS linker) EVQLVESGGGLVQTGGSLRLSCAASGFTFSSYAMSWVRQAPGKGLEWVSGIKSSGDSTRYAGSVKGRFTISRDNAKNMLYLQMYSLKPEDTAVYYCAKSRVSRTGLYTYDNRGQGTQVTVSSGGGGSGGGGSEVQLVESGGGLVQTGGSLRLSCAASGFTFSSYAMSWVRQAPGKGLEWVSGIKSSGDSTRYAGSVKGRFTISRDNAKNMLYLQMYSLKPEDTAVYYCAKSRVSRTGLYTYDNRGQGTQVTVSS	–	–	–	–	–	–	–	95 ± 5%	–	14^a	9.16 ± 0.08	–
237D1: Nanobody (VHH) raised against human CXCR4, SEQ ID NO: 249 (protein, Nanobody, Nanobody constructs or fragments thereof) VHH: EVQLVESGGGLAQPGGPLRLTCEASGVIYSVNDMGWYRQAPGKQRELVAVITSGGGTNYVDSVKGRFTISGDNRKKTVYLQMNSLKPEDTAVYYCSIYYSSGISTLRSWGQGTQVTVSS	0^a %	unable to displace	+ (+ = 30-69%)	unable to inhibit	0^a %	unable to inhibit	0^a %	–	–	–	–	–
238D2-20GS-238B10 (protein) EVQLVESGGGLVQTGGSLRLSCAASGFTFSSYAMSWVRQAPGKGLEWVSGIKSSGDSTRYAGSVKGRFTISRDNAKNMLYLQMYSLKPEDTAVYYCAKSRVSRTGLYTYDNRGQGTQVTVSSGGGGSGGGGSGGGGSGGGGSEVQLVESGGGFVQAGGSLRLSCETSGRPLLGYTIAWFRQVPGKEREFVAYHRWSDGANLYADSVKGRFTISGHNAKNTVSLQMNSLKPEDTAVYYCAAARMTTSNDKEYLYWGQGTQVTVSS	–	–	–	–	–	–	–	–	–	<0.1^a	<7.00	43 ± 11^c %
237D2: Nanobody (VHH) raised against human CXCR4, SEQ ID NO: 241 (protein, Nanobody, Nanobody constructs or fragments thereof) VHH: EVQLVESGGGLVQPGGSLRLSCAASGFTFDDYAMSWVRQAPGKGLEWVSAISWNGGSTDYADSVKGRFTISRDNAKNTLYLQMNSLKSEDTAEYYCARDQGPFYSGTYYYTRQYGYRGQGTQVTVSS	0^a %	unable to displace	–	unable to inhibit	0^a %	unable to inhibit	0^a %	–	–	–	–	–
